Measured values from patent US9822156B2, “Amyloid beta expression constructs and uses therefor” (Whitehead Institute for Biomedical Research, priority 2014, dated 2017).

Experiments:
[1] = tested on: Rat embryonic cortical neurons; assay: […] ATP viability assay in neurons infected with lentiviral poly-Aβ constructs; format: cell-based; conditions: three weeks post doxycycline-induction (2 μg/ml)
From the text: Rat embryonic cortical neurons were infected with lentiviral poly-Aβ expression constructs to model poly-Aβ toxicity. Tetracycline (doxycycline)-inducible poly-Aβ (Aβ42-4X, Aβ42-6X, Aβ40-4X, Aβ40-6X, and Aβ42-Arctic-4X) viral constructs described in Example 5 were used to express poly-Aβ constructs in rat cortical neurons. In each expression construct, the poly-Aβ coding sequence is linked to an N-terminal insulin signal peptide. The poly-Aβ expression plasmids were packaged in lentiviral particles, which were generated by 293T cells as described in Example 3.
Rat cortical neurons were enriched from cortices dissected out of embryonic (E18) rat brains and enriched in adherent monolayer culture as described in Example 3. Purified lentiviral preparations at different MOI were used to infect these cortical neurons to express poly-Aβ transgenes. Three days post-infection, expression of poly-Aβ was induced by adding doxycycline (2 μg/ml) to the infected cultures.

[2] = tested on: 293T cells; assay: TOXILIGHT cytotoxicity assay in stable doxycycline-inducible poly-Aβ 293T cell lines; format: cell-based; conditions: 72-96 hours following doxycycline induction
From the text: Similar to the poly-Aβ (Aβ40 or Aβ42_1X/4X/6X/8X) expression constructs in yeast (see Example 1), a poly-Aβ toxicity model was developed in mammalian cells. Stable cell lines with chromosomally-integrated tetracycline (doxycycline)-inducible […] transgenes (Aβ42-4X, Aβ42-6X, Aβ40-4X, Aβ40-6X and Aβ42-Arctic-4X) linked to an N-terminal insulin signal peptide were generated (FIGS. 13A-13B). These expression constructs were generated using the pLix402 lentiviral plasmid (FIG. 12). The poly-Aβ constructs were individually transfected into 293T cells along with the lentiviral packaging plasmid psPAX and the viral envelope-expressing plasmid mMD2.G using LIPOFECTAMINE® 2000 (Invitrogen) transfection reagent to generate lentivirus containing the poly-Aβ transgene. The virus was harvested from the supernatant of transfected 293T cells 2 and 3 days post-transfection and subsequently purified and concentrated using the LENTI-X™ Maxi Purification kit (Clontech) according to the manufacturer's instructions.
To generate stable cells harboring the expression transgene for the poly-Aβ constructs, 293T cells were infected using POLYBRENE® infection reagent (Sigma Aldrich), which is used to introduce retroviral vectors into mammalian cells. Infected cells were then selected using puromycin (2-10 μg/ml). Infected cells harboring the transgene survive this selection pressure whereas the control cells without the transgene die in 2-3 days. Aliquots of the selected cells were frozen in liquid nitrogen or maintained and propagated for further applications.
Expression of Aβ peptide from these stable cell lines was measured in the culture supernatant 72-96 hours following doxycycline induction (FIG. 13D). Toxicity was measured 72-96 hours following doxycycline induction using a TOXILIGHT™ cytotoxicity assay (Lonza) as described in Example 2.

## Aβ42-4X: doxycycline-inducible construct, insulin signal peptide and four copies of Aβ42, SEQ ID NO:35
[1]
  cytotoxicity (viability by ATP levels): profound cytotoxicity compared to Aβ40-4X
[2]
  Aβ peptide-mediated cytotoxic effect (adenylate kinase release), rank order: Aβ42-6X≧Aβ42-Arctic-4X≧Aβ42-4X≧AB40-6X≧Aβ40-4X

B1: Aβ42-Arctic-4X: doxycycline-inducible construct, insulin signal peptide and four copies of Aβ42 E22G, SEQ ID NO:37 (protein)
chain: MALWMRLLPLLALLALWGPDPAAADAEFRHDSGYEVHHQKLVFFAGDVGSNKGAIIGLMVGGVVIARRDAEFRHDSGYEVHHQKLVFFAGDVGSNKGAIIGLMVGGVVIAKRDAEFRHDSGYEVHHQKLVFFAGDVGSNKGAIIGLMVGGVVIARRDAEFRHDSGYEVHHQKLVFFAGDVGSNKGAIIGLMVGGVVIA
[1]
  cytotoxicity (viability by ATP levels): profound cytotoxicity compared to Aβ40-4X
[2]
  Aβ peptide-mediated cytotoxic effect (adenylate kinase release), rank order: Aβ42-6X≧Aβ42-Arctic-4X≧Aβ42-4X≧AB40-6X≧Aβ40-4X
